Source: IntAct's records for PubMed 16498409

B1: ADP-ribosylation factor 1 (Saccharomyces cerevisiae), P11076 (parent)
chain: MGLFASKLFSNLFGNKEMRILMVGLDGAGKTTVLYKLKLGEVITTIPTIGFNVETVQYKNISFTVWDVGGQDRIRSLWRHYYRNTEGVIFVVDSNDRSRIGEAREVMQRMLNEDELRNAAWLVFANKQDLPEAMSAAEITEKLGLHSIRNRPWFIQATCATSGEGLYEGLEWLSNSLKNST
partner: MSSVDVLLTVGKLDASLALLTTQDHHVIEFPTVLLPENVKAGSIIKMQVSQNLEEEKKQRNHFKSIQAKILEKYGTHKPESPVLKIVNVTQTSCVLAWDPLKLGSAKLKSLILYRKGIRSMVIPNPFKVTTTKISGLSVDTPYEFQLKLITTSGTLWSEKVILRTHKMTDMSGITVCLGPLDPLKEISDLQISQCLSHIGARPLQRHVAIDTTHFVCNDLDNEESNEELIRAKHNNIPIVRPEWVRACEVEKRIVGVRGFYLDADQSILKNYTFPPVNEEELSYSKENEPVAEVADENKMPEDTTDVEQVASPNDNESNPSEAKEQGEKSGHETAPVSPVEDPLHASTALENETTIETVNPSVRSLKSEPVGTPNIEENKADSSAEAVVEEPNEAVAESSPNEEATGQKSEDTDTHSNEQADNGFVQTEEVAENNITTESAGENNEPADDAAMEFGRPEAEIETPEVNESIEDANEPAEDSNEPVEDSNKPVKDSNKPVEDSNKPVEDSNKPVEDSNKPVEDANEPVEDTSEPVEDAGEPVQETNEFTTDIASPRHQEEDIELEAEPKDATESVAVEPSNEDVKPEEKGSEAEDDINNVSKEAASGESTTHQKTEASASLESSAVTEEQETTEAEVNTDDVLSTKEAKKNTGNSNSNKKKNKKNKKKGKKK
B2: ADP-ribosylation factor 1 (Saccharomyces cerevisiae), P11076 (parent)
chain: B1 chain

Variants of: B1
Conditions: with chs5_yeast CHS5, Q12114

effect of a mutation on the interaction	Variant
increasing interaction	Q71L

Variants of: B2
Conditions: with glo3_yeast GLO3, P38682
Sequence of glo3_yeast GLO3, P38682 (P38682 whole entry): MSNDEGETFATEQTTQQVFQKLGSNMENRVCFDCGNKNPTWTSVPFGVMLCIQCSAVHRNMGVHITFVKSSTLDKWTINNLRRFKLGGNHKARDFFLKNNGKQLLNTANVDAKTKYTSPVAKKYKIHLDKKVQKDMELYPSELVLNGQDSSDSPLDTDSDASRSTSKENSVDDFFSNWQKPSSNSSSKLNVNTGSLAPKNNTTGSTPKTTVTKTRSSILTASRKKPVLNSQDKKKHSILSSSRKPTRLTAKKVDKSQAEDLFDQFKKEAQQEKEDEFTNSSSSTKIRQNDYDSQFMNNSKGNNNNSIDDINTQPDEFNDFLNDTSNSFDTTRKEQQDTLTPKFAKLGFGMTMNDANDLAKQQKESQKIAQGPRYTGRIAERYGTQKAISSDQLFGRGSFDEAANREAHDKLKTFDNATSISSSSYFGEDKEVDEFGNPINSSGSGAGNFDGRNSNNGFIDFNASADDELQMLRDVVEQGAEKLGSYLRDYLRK

effect of a mutation on the interaction	Variant
increasing interaction	Q71L
